The values that follow are results of earlier work, collected in article PMC2846785.

One may read the pKa as the pH at which an ionisable group is half protonated.

For the data set, the system named is Cys.

As to “Arylamine N-acetyltransferase 2 (hamster NAT2) (Mesocricetus auratus (Syrian hamster))”, the pKa was 5.23 ± 0.03.
